Data as given in PMC2192386.

Assays:
[1] = molecular target: N-RAP-NH (the NH2-terminal half of N-RAP including the LIM domain); assay: ELISA
[2] = molecular target: N-RAP-IB (the region of N-RAP between the LIM domain and the nebulin-like repeats); assay: ELISA

B1: muscle LIM protein (MLP), rat, histidine-tagged, full length (natural protein)
chain: MPNWGGGAKCGACDKTVYHAEEIQCNGRSFHKTCFHCMACRKALDSTTVAAHESEIYCKVCYGRKYGPKGIGFGQGAGCLSTDTGEHLGLQFQQSPKPARAATTSNPSKFSAKFGESEKCPRCGKSVYAAEKVMGGGKPWHKTCFPCAICGKSLESTNVTDKDGELYCKVCYAKNFGPTGIGFGGLTHQVEKKE
For B1, the Kd [1] was 0.008 µM and the Kd [2] was 0.017 µM.
